Source: patent publication US11813311B2, “Treatment and prevention of metabolic diseases” (Singapore Health Services PTE LTD., priority 2019, dated 2023)

B1: X209: mouse anti-mouse IL-11Rα IgG (IgG1κ), neutralising; VH SEQ ID NO:24, VL SEQ ID NO:25 (antibody, V domains shown)
VH: QVQLQQPGAELVRPGSSVKLSCKASGYTFTNYWMHWLKQRPVQGLEWIGNIGPSDSKTHYNQKFKDKATLTVDKSSSTAYMQLNSLTSEDSAVYYCARGDYVLFTYWGQGTLVTVSA
VL: DIVLTQSPATLSLSPGERATLSCRASQSISNNLHWYQQKSHEAPRLLIKYASQSISGIPARFSGSGSGTDFTLSFSSLETEDFAVYFCQQSYSWPLTFGQGTKLEIK
modifications: Enx209 VH; Enx209 VL
B2: X203: mouse anti-mouse IL-11 IgG (IgG1κ), neutralising; VH SEQ ID NO:22, VL SEQ ID NO:23 (antibody, V domains shown)
VH: EVQLQQSGPELVKPGASVKIPCKASGYTFTDYNMDWVKQSHGKSLEWIGDINPHNGGPIYNQKFTGKATLTVDKSSSTAYMELRSLTSEDTAVYYCARGELGHWYFDVWGTGTTVTVSS
VL: DIVLTQSPASLAVSLGQRATISCRASKSVSTSGYSYIHWYQQKPGQPPKLLIYLASNLDSGVPARFSGSGSGTDFTLNIHPVEEEDAATYYCQHSRDLPPTFGGGTKLEIK
modifications: Enx203 VH; Enx203 VL

Key:
[1] = tested on: primary human hepatocytes; test: Palmitate loading (lipotoxicity) of primary human hepatocytes; assay type: cell-based
Method: Palmitate:BSA conjugated solution in the ratio of 6:1 was prepared as described earlier (Alsabeeh et al., 2018). Palmitate (0.5 mM) conjugated in fatty acids free BSA was used to treated cells as described in figure legends; 0.5% BSA solution was used as control. […]
Primary human hepatocytes were seeded on 8-well chamber slides (1×10^4 cells/well). For this experiment, cells were not serum-starved prior to palmitate treatment. 24 hours following palmitate stimulation, cells were washed, incubated with 25 μM of DCFDA solution (ab113851, Abcam) for 45 minutes at 37° C. in the dark, and rinsed with dilution buffer according to the manufacturer's protocol. Live cells with positive DCF staining were imaged with filter set appropriate for fluorescein (FITC) using a fluorescence microscope (Leica). […]
Western blots were carried out on total protein extracts from hepatocytes and liver tissues. Hepatocyte and liver tissue lysates were homogenized in RIPA Lysis and Extraction Buffer (89901, Thermo Scientific) containing protease and phosphatase inhibitors (Roche). Protein lysates were separated by SDS-PAGE and transferred to PVDF membranes. Protein bands were visualized using the ECL detection system (Pierce) with the appropriate secondary antibodies: anti-rabbit HRP or anti-mouse HRP.

[2] = tested on: mice with HFMCD-induced liver fibrosis; test: HFMCD fibrosis reversal with switch to normal chow plus antibody; assay type: in vivo, mouse; details: for regression of Erk activation: after removal of the metabolic stimulus; for reversal of hepatic collagen content: HFMCD 10 weeks then normal chow; for Mmp2 expression / Timp1 expression: mice with severe fibrosis
Method: FIGS. 21A to 21L. Inhibition of Il-11 signalling reverses NASH pathologies in preclinical models and HSC-to-myofibroblast transformation. (A) Schematic showing therapeutic dosing regime in NASH reversal experiment for data shown in (B-G). Mice were fed with WDF for 16 weeks to induce NASH and then treated with (10 mg/kg) X209 or IgG for 8 weeks while they were on continuous WDF feeding. (B) Total liver hydroxyproline content, the levels of (C) liver triglycerides, (D) serum ALT, (E), fasting blood glucose, (F) serum triglycerides, and (G) serum cholesterol in mice on NC and IgG- and X209-treated WDF (n≥5/group). (H) Schematic showing reversal experiment in which fibrosis was established by feeding mice HFMCD for 10 weeks and then replacing this with NC and initiating antibody (X203 and X209) therapy. Mice were euthanized at the indicated time points. (I) Total liver hydroxyproline content (dotted line represents the mean value of NC=0.93) and (J) relative mRNA expression of Mmp2/Timp1 at 1-, 3-, 6-weeks after concurrent metabolic intervention (diet switch) and X203, X209, or IgG treatment (n≥3/group). Quantification of ACTA2^+ve immunostaining (scale bars, 200 μm) following incubation (K) with TGFβ1 or (L) with PDGF, either prior to or after the addition of X203, X209, or IgG (n=5/group). (K-L) TGFβ1 (5 ng/ml), PDGF (20 ng/ml), IgG, X203 and, X209 (2 μg/ml). (B-G, K-L) Data are shown as box-and-whisker with median (middle line), 25th-75th percentiles (box) and min-max percentiles (whiskers); (I) data are shown as mean±s.d; (J) data are represented as line chart (mean) and transparencies indicate s.d. (B) Two-tailed Student's t-test (C-G,K-L) two-tailed, Tukey-corrected Student's t-test; (I-J) two-way ANOVA. FC: fold change; NC: normal chow; WDF: Western diet+15% (w/v) fructose; HFMCD: high fat methionine- and choline-deficient.
Furthermore, combination therapies may be beneficial for reversing fibrosis in NASH′. To address these points, severe liver fibrosis was established using HFMCD for 10 weeks, then converted mice to normal chow, mimicking a robust metabolic intervention, and initiated anti-IL-11 treatments in parallel (FIG. 21H).

PSCs = test: Pancreatic stellate cell (PSC) activation in vitro; assay type: cell-based; details: 24 hours
Method: FIGS. 48A and 48B. Box plots and images showing activation of pancreatic stellate cells (PSCs) to a αSMA-positive, collagen-expressing fibrogenic phenotype. (A) Quantification of high-content imaging assays for the percentage of ACTA2-positive cells and collagen I intensity/area following in vitro stimulation of PSCs for 24 hours with the indicated factors, in the presence or absence of neutralising anti-IL-11 RA antibody or IgG isotype control antibody. (B) Representative images for high-content imaging analysis of collagen I intensity/area following in vitro stimulation of PSCs for 24 hours with the indicated factors, in the presence of neutralising anti-IL-11 RA antibody or IgG isotype control antibody.

HSCs = test: HSC-to-myofibroblast transformation (ACTA2/Collagen I, Operetta); assay type: cell-based, human; details: antibody 2 μg/ml, 24 h
Method: Cells (atrial fibroblasts, HSCs and hepatocytes) were grown and maintained at 37° C. and 5% CO2. The growth medium was renewed every 2-3 days and cells were passaged at 80-90% confluence using standard trypsinization techniques. All the experiments were carried out at low cell passage (P1-P2). Cells were serum-starved for 16 h prior to stimulations. Stimulated cells were compared to unstimulated cells that have been grown for the same duration under the same conditions (serum-free media), but without the stimuli.
HSCs (5300, ScienCell) were cultured in stellate cells complete media (5301, ScienCell) on poly-L-lysine-coated plates (2 μg/cm2, 0403, ScienCell).
The Operetta assay was performed mostly as described previously 11 with minor modifications described here: HSCs or hepatocytes were seeded in 96-well black CellCarrier plates (PerkinElmer) at a density of 5×10^3 cells per well. Following experimental conditions, cells were fixed in 4% paraformaldehyde (PFA, 28908, Thermo Fisher), permeabilized with 0.1% Triton X-100 (Sigma) and non-specific sites were blocked with 0.5% BSA and 0.1% Tween-20 in PBS. Cells were incubated overnight (4° C.) with primary antibodies (1:500), followed by incubation with the appropriate AlexaFluor 488 secondary antibodies (1:1000). Rhodamine Phalloidin staining (1:1000, R415, Thermo Fisher) was performed by overnight incubation (4° C.). […]

[3] = after three weeks of antibody treatment
[4] = at six weeks of antibody treatment

Molecule | palmitate-induced signaling events ([1]; Western blot) | secretion of cytokines (IL11, IL6, CCL2, CCL5) ([1]; X209 2 μg/ml or sgp130 1 μg/ml) | NOX4 upregulation by palmitate ([1]; palmitate) | caspase3 activation ([1]; palmitate) | fatty acid synthase (FASN) upregulation ([1]; palmitate) | triglyceride accumulation ([1]; palmitate) | ROS production ([1]; sFA-loaded hepatocytes) | glutathione (GSH) levels ([1]; sFA-loaded hepatocytes) | regression of Erk activation [2] | reversal of hepatic collagen content [2, 3] [%] | reversal of hepatic collagen content [2, 4] [%] | Mmp2 expression [2] | Timp1 expression [2] | PSC activation irrespective of the stimulus (TGFβ1, IL-11, bFGF, CTGF, PDGF or ET-1) (PSCs) | HSC transformation downstream of all factors, including IL-11 (HSCs)
B1 | largely inhibited | reduced the secretion of all cytokines | inhibited | largely inhibited | largely inhibited | largely inhibited | prevent ROS production | partial restoration | accelerated | 24 | 46 | rapidly upregulated | downregulated | inhibited | abolished
B2 | – | – | – | – | – | – | – | – | accelerated | 18 | 37 | rapidly upregulated | downregulated | – | –
